In PMC314469 (2004):
Where two headings read alike, the source gives them in different places. No end group written: not given here.

B1: RVS167 SH3 domain (protein)
chain: PGVETVTALYDYQAQAAGDLSFPAGAVIEIVQRTPDVNEWWTGRYNGQQGVFPGNYVQLNKN

How the values were obtained:
Test in all cases: SPR
YPR171 peptide = biological target: YPR171 peptide
GST-Abp1 SH3 domain [1] = biological target: T1, GST-Abp1 SH3 domain (S. cerevisiae, UniProt P15891 532-592)
T1 chain: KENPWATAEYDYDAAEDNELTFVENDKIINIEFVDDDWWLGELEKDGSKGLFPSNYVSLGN

RVS167 SH3 domain = biological target: B1
GST-Abp1 SH3 domain [2] = biological target: T1, GST-Abp1 SH3 domain
YJR083C peptide = biological target: YJR083C peptide
YMR192 peptide = biological target: YMR192 peptide

Binder: B1
- Kd (YPR171 peptide): 16 µM

B2: Yir003w peptide(s) on the Abp1 SPOT membrane (peptide)
chain: RPKRRAPPPVPKKP
modifications: also: bound to cellulose SPOT membrane
- Kd (GST-Abp1 SH3 domain [1]): 0.92 µM
- Kd (RVS167 SH3 domain): 13 µM
- Kd (GST-Abp1 SH3 domain [2]): 0.9 µM

B3: YFR024C SH3 domain (protein)
chain: TSSPKAVALYSFAGEESGDLPFRKGDVITILKKSDSQNDWWTGRVNGREGIFPANYVELV
- Kd (YPR171 peptide): 4.8 µM

B4: BOI2 SH3 domain (protein)
chain: GNFPMYIAINEYFKRMEDELDMKPGDKIKVITDDEEYKDGWYFGRNLRTNEEGLYPVVFTQKITV
- Kd (YJR083C peptide): > 100 µM
- Kd (YPR171 peptide): > 100 µM
- Kd (YMR192 peptide): > 100 µM

B5: Scp1 peptide(s) on the Abp1 SPOT membrane (peptide)
chain: LSTKKPRPPVKSKP
modifications: also: bound to cellulose membrane
- Kd (GST-Abp1 SH3 domain [1]): 14 µM
- Kd (GST-Abp1 SH3 domain [2]): 14 µM

B6: Srv2 peptide(s) on the Abp1 SPOT membrane (peptide)
chain: PPPRPKKP
modifications: also: bound to cellulose membrane
- Kd (GST-Abp1 SH3 domain [1]): 75 µM
- Kd (GST-Abp1 SH3 domain [2]): 75 µM

B7: Ark1 peptide(s) on the Abp1 SPOT membrane (peptide)
chain: SKDKKTKPTPPPKP
modifications: also: bound to cellulose membrane (SPOT)
- Kd (GST-Abp1 SH3 domain [1]): 24 µM
- Kd (RVS167 SH3 domain): > 100 µM
- Kd (GST-Abp1 SH3 domain [2]): 24 µM

B8: Prk1 peptide(s) on the Abp1 SPOT membrane (peptide)
chain: GKDKSRPPRPPPKP
modifications: also: bound to cellulose membrane (SPOT)
- Kd (GST-Abp1 SH3 domain [1]): 22 µM
- Kd (RVS167 SH3 domain): > 100 µM
- Kd (GST-Abp1 SH3 domain [2]): 22 µM
